These results are taken from the Human Domainome abundance scans (Beltran et al. 2025).

± gives the uncertainty stated by the source.

Sequences and labels used below:
B1: RNA-binding E3 ubiquitin-protein ligase MEX3C, residues 325 to 391; numbered along this chain, Q5U5Q3 (parent)
chain: GQTTVQVRVPYRVVGLVVGPKGATIKRIQQQTHTYIVTPSRDKEPVFEVTGMPENVDRAREEIEMHI

Variants of B1 are the subject of the data set. Nature of the data set: abundance fitness (aPCA) (normalised: wild type 0, dead -1); higher = more abundant; growth selection in yeast, the domain comes from the species named. The settings on record: Homo sapiens.
With GQTTVQVRVPYRVVGLVVGPKGATIKRIQQQTHTYIVTPSRDKEPVDEVTGMPENVDRAREEIEMHI [F47D], the abundance fitness is -1.01 ± 0.35. For GQTTVQVRVPYRVVGLVVGPKGATIKRIQQQTHTYIVTPSRDKEPVPEVTGMPENVDRAREEIEMHI [F47P], the abundance fitness is -0.974 ± 0.32. As for GQTTVQVRVPYRVVGLVVGPKGATIKRIQQQTHTYIVTPSRDKEPVYEVTGMPENVDRAREEIEMHI [F47Y], the figure is -0.677 ± 0.25. As for GQTTVQVRVPYRVVGLVVGPKGATIKRIQQQTHTYIVTPSRDKEPVSEVTGMPENVDRAREEIEMHI [F47S], the figure is -0.835 ± 0.14; as for GQTTVQVRVPYRVVGLVVGPKGATIKRIQQQTHTYIVTPSRDKEPVVEVTGMPENVDRAREEIEMHI [F47V], -0.792 ± 0.11. Next, GQTTVQVRVPYRVVGLVVGPKGATIKRIQQQTHTYIVTPSRDKEPVREVTGMPENVDRAREEIEMHI [F47R]: -0.706 ± 0.074; GQTTVQVRVPYRVVGLVVGPKGATIKRIQQQTHTYIVTPSRDKEPVCEVTGMPENVDRAREEIEMHI [F47C]: -0.411 ± 0.13; GQTTVQVRVPYRVVGLVVGPKGATIKRIQQQTHTYIVTPSRDKEPVNEVTGMPENVDRAREEIEMHI [F47N]: -0.442 ± 0.22. Regarding GQTTVQVRVPYRVVGLVVGPKGATIKRIQQQTHTYIVTPSRDKEPVIEVTGMPENVDRAREEIEMHI [F47I], the abundance fitness was -0.853 ± 0.35.

Take GQTTVQVRVPYRVVGLVVGPKGATIKRIQQQTHTYIVTPSRDKEPVTEVTGMPENVDRAREEIEMHI [F47T]: the abundance fitness was -0.511 ± 0.15.

As to GQTTVQVRVPYRVVGLVVGPKGATIKRIQQQTHTYIVTPSRDKEPVMEVTGMPENVDRAREEIEMHI [F47M], the abundance fitness was -0.808 ± 0.18. Next, GQTTVQVRVPYRVVGLVVGPKGATIKRIQQQTHTYIVTPSRDKEPVWEVTGMPENVDRAREEIEMHI [F47W]: -0.412 ± 0.093; GQTTVQVRVPYRVVGLVVGPKGATIKRIQQQTHTYIVTPSRDKEPVAEVTGMPENVDRAREEIEMHI [F47A]: -0.889 ± 0.19; GQTTVQVRVPYRVVGLVVGPKGATIKRIQQQTHTYIVTPSRDKEPVGEVTGMPENVDRAREEIEMHI [F47G]: -0.661 ± 0.07. Next, GQTTVQVRVPYRVVGLVVGPKGATIKRIQQQTHTYIVTPSRDKEPVQEVTGMPENVDRAREEIEMHI [F47Q]: -0.648 ± 0.19. Turning to GQTTVQVRVPYRVVGLVVGPKGATIKRIQQQTHTYIVTPSRDKEPVEEVTGMPENVDRAREEIEMHI [F47E], the abundance fitness was -0.658 ± 0.11. Next, GQTTVQVRVPYRVVGLVVGPKGATIKRIQQQTHTYIVTPSRDKWPVFEVTGMPENVDRAREEIEMHI [E44W]: -0.695 ± 0.11; GQTTVQVRVPYRVVGLVVGPKGATIKRIQQQTHTYIVTPSRDKVPVFEVTGMPENVDRAREEIEMHI [E44V]: -0.472 ± 0.08; GQTTVQVRVPYRVVGLVVGPKGATIKRIQQQTHTYIVTPSRDKTPVFEVTGMPENVDRAREEIEMHI [E44T]: -0.798 ± 0.37.

On to GQTTVQVRVPYRVVGLVVGPKGATIKRIQQQTHTYIVTPSRDKEVVFEVTGMPENVDRAREEIEMHI [P45V], for which the abundance fitness was -0.919 ± 0.17. Next, GQTTVQVRVPYRVVGLVVGPKGATIKRIQQQTHTYIVTPSRDKESVFEVTGMPENVDRAREEIEMHI [P45S]: -0.387 ± 0.072; GQTTVQVRVPYRVVGLVVGPKGATIKRIQQQTHTYIVTPSRDKECVFEVTGMPENVDRAREEIEMHI [P45C]: -0.47 ± 0.092. As for GQTTVQVRVPYRVVGLVVGPKGATIKRIQQQTHTYIVTPSRDKEIVFEVTGMPENVDRAREEIEMHI [P45I], the figure is -0.622 ± 0.29; as for GQTTVQVRVPYRVVGLVVGPKGATIKRIQQQTHTYIVTPSRDKEDVFEVTGMPENVDRAREEIEMHI [P45D], -0.677 ± 0.12. Next, GQTTVQVRVPYRVVGLVVGPKGATIKRIQQQTHTYIVTPSRDKERVFEVTGMPENVDRAREEIEMHI [P45R]: -0.564 ± 0.076; GQTTVQVRVPYRVVGLVVGPKGATIKRIQQQTHTYIVTPSRDKEHVFEVTGMPENVDRAREEIEMHI [P45H]: -0.502 ± 0.11. Take GQTTVQVRVPYRVVGLVVGPKGATIKRIQQQTHTYIVTPSRDKELVFEVTGMPENVDRAREEIEMHI [P45L]: the abundance fitness is -0.479 ± 0.13.

As for GQTTVQVRVPYRVVGLVVGPKGATIKRIQQQTHTYIVTPSRDKEQVFEVTGMPENVDRAREEIEMHI [P45Q], the abundance fitness is -0.458 ± 0.13.

For the variant GQTTVQVRVPYRVVGLVVGPKGATIKRIQQQTHTYIVTPSRDKEMVFEVTGMPENVDRAREEIEMHI [P45M], the abundance fitness is -0.467 ± 0.16. As for GQTTVQVRVPYRVVGLVVGPKGATIKRIQQQTHTYIVTPSRDKEGVFEVTGMPENVDRAREEIEMHI [P45G], the figure is -0.434 ± 0.063; as for GQTTVQVRVPYRVVGLVVGPKGATIKRIQQQTHTYIVTPSRDKEKVFEVTGMPENVDRAREEIEMHI [P45K], -0.42 ± 0.18. Next, GQTTVQVRVPYRVVGLVVGPKGATIKRIQQQTHTYIVTPSRDKEFVFEVTGMPENVDRAREEIEMHI [P45F]: -0.417 ± 0.13. On to GQTTVQVRVPYRVVGLVVGPKGATIKRIQQQTHTYIVTPSRDKEAVFEVTGMPENVDRAREEIEMHI [P45A], for which the abundance fitness is -0.422 ± 0.083. Next, GQTTVQVRVPYRVVGLVVGPKGATIKRIQQQTHTYIVTPSRDKENVFEVTGMPENVDRAREEIEMHI [P45N]: -0.821 ± 0.27; GQTTVQVRVPYRVVGLVVGPKGATIKRIQQQTHTYIVTPSRDKETVFEVTGMPENVDRAREEIEMHI [P45T]: -0.493 ± 0.12; GQTTVQVRVPYRVVGLVVGPKGATIKRIQQQTHTYIVTPSRDKEEVFEVTGMPENVDRAREEIEMHI [P45E]: -0.375 ± 0.09. Next, GQTTVQVRVPYRVVGLVVGPKGATIKRIQQQTHTYIVTPSRDKEPIFEVTGMPENVDRAREEIEMHI [V46I]: -0.093 ± 0.072.

Consider GQTTVQVRVPYRVVGLVVGPKGATIKRIQQQTHTYIVTPSRDKEPNFEVTGMPENVDRAREEIEMHI [V46N], for which the abundance fitness is -0.62 ± 0.24. Next, GQTTVQVRVPYRVVGLVVGPKGATIKRIQQQTHTYIVTPSRDKEPWFEVTGMPENVDRAREEIEMHI [V46W]: -0.662 ± 0.099. As for GQTTVQVRVPYRVVGLVVGPKGATIKRIQQQTHTYIVTPSRDKEPKFEVTGMPENVDRAREEIEMHI [V46K], the figure is -0.321 ± 0.1.
